# Measurements reported in patent CN111303285A (BAILISIKANG BIOLOGICAL PHARMACEUTICAL HANGZHOU CO LTD, dated 2020).
# T1: OX40 expressed on cells (OX40-293F细胞; 19B3 HEK293 NF-κB报告细胞系) (UniProt P43489 29-277)
# T1 sequence (looked up): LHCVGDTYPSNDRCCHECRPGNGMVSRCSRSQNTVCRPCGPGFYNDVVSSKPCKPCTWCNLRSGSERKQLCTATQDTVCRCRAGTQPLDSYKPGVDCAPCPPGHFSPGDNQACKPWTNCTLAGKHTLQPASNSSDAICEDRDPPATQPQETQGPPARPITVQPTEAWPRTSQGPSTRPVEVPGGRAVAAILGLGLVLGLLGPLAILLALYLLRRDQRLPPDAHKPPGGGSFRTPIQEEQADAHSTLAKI
# Key:
# 4-1BB-His融合蛋白 = target: T2, 4-1BB-His融合蛋白 (UniProt Q07011 24-186); assay: ELISA, fusion protein coated on the plate
# T2 construct: extracellular domain; also called 4-1BB融合蛋白; not shown: His tag
# 4-1BB-rFc融合蛋白 = target: T3, 4-1BB-rFc融合蛋白 (UniProt Q07011 24-186); assay: ELISA, fusion protein coated on the plate
# T3 construct: extracellular domain; also called 4-1BB融合蛋白; not shown: rFc part
# [1] = target: T1, OX40 expressed on cells (OX40-293F细胞; …); assay: cell-based or functional assay
binder,measurement,setting,value
"本发明抗OX40抗体 (murine monoclonal anti-OX40 antibody of the invention) (antibody, V domains shown, also called 本发明OX40抗体; 靶向OX40的抗体) VH: EVQLQQSGAELVKPGASVKLSCKASGYTFTNYWIHWVKQRPGQGLEWIGEINPSNGRTNSNEKFKNKATLTVDKSSSTAYMQLSSLTSEDSAVYYCAEAVPYYFVYWGQGTTLTVSS VL: DIVMTQAASSLSASLGDRVTISCRASQDINNYLNWYQQKPDGTVKLLIYFTSGLRSGVPSRFSGSGSGTDYSLTISNLEQEDIATYFCQQGNTLPLTFGAGTKLELN",binding result,4-1BB-His融合蛋白,no binding
same,binding result,4-1BB-rFc融合蛋白,no binding
same,NF-κB luciferase reporter (RLU) in 19B3 cells expressing OX40; 半数有效浓度(EC50),[1],0.803 µg/mL
